Assay [1] has as its target DPP-IV as immobilized on the CM5 Biacore sensor (human) (UniProt P27487). The assay can be described thus: SPR (Biacore), DPP-IV immobilized on CM5, Diprotin A in Hepes running buffer. For orientation: In SPR one partner is held on a chip, and binding of the other changes the refractive index at the surface.
Assay [2] concerns the target soluble extracellular domain of human dipeptidyl peptidase IV (sDPP-IV; residues 31-766), glycosylated (human) (UniProt P27487). The assay can be described thus: enzyme inhibition, fluorogenic substrate Ala-Pro-7-amido-4-trifluoromethylcoumarin, assay buffer, 25° C., glycosylated sDPP-IV.

In general, Kd refers to the concentration at which binding is half-saturated. By Ki is commonly meant the dissociation constant of the complex between target and ligand, obtained from inhibition or displacement. Low values mean a stronger hold on the target, high ones a looser hold on the target.

Chain of DPP-IV as immobilized on the CM5 Biacore sensor (human) (P27487 31-766 limits assumed): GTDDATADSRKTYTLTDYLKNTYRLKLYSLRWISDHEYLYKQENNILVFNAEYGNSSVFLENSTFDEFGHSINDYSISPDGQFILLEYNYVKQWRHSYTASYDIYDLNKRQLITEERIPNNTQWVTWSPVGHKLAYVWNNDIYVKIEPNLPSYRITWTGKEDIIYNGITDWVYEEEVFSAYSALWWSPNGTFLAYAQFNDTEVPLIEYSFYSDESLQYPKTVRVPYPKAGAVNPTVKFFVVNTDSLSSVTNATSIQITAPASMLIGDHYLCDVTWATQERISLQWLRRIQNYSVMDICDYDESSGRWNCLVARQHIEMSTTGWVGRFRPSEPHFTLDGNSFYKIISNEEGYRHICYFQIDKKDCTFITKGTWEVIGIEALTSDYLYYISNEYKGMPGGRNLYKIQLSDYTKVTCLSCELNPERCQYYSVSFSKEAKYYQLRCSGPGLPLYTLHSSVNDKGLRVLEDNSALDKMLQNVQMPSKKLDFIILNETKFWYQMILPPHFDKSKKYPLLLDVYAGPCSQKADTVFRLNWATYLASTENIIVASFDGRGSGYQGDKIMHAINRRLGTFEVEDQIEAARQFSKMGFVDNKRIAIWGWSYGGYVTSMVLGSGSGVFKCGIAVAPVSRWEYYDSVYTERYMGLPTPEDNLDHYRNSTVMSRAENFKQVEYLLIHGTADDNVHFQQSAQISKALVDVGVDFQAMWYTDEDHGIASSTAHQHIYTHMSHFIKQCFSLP
Chain of soluble extracellular domain of human dipeptidyl peptidase IV (sDPP-IV; residues 31-766), glycosylated (human) (P27487 31-766 limits assumed): as above

In assay [1], Diprotin A (Ile-Pro-Ile) (peptide) registered a Kd of 3.8 µM. This substance also showed a Ki in assay [2] of 4.63 µM.

The values above are taken from patent publication US20070100561A1, “Crystals of DPP-IV” (priority 2002, published 2007).
